Measured values from the supplement of paper PMC7877785.
± gives the uncertainty stated by the source.

Assay: self-splicing fitness, log relative to wild type (ln ratio); higher = more splicing; Tetrahymena group I intron in knt gene, E. coli kanamycin selection, DiMSum; sequences stand for … in CUCUCU…GGAGGGAAAAGUUAUCAGGCAUGCACCUGGUAGCUAGUCUUUAAACCAAUAGAUUGCAUCGGUUUAAAAGGCAAGACCGUCAAAUUGCGGGAAAGGGGUCAACAGCCGUUCAGUACCAAGUCUCAGGGGAAACUUUGAGAUGGCCUUGCAAAGGGUAUGGUAAUAAGCUGACGGACAUGGUCCUAACCACGCAGCCAAGUCCUAAGUCAACAGAUCUUCUGUUGAUAUGGAUGCAGUUCACAGACUAAAUGUCGGUCGGGGAAGAUGUAUUCUUCUCAUAAGAUAUAGUCGGACCUCUCCUUAAUGGGAGCUAGCGGAUGAAGUGAUGCAACACUGGAGCCGCUGGGAACUAAUUUGUAUGCGAAAGUAUAUUGAUUAGUUUUGGAGUACUCGUGGUCG
Method in brief: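 Library with all eight P1ex-region intron nucleotides randomised, intron inside the knt kanamycin-resistance gene on pET-22b(+), in E. coli BL21(DE3). Cells grew overnight at 37°C or 30°C on LB agar with or without 25 μg/mL kanamycin (plus 100 μg/mL carbenicillin, 50 μM IPTG, 0.2% rhamnose), in six replicate transformations. Pooled colonies were amplicon-sequenced on Illumina HiSeq 2500. DiMSum fitness is the error-weighted combination of wild-type-normalised replicate fold changes, kanamycin versus none.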

Sequence | self-splicing fitness (ln) (30 °C) | self-splicing fitness (ln) (37 °C)
AAUUAGCAAUAUUACGAGUG | -1.08 ± 0.081 | -0.525 ± 0.11
AGCUAGCAAUAUUACGACGU | 0.0109 ± 0.068 | -0.112 ± 0.08
AUUCAGCAAUAUUACGAUAC | -1.17 ± 0.097 | 0.368 ± 0.11
GGAUAGCAAUAUUACGGUAA | -2 ± 0.14 | -1.45 ± 0.12
AGGCAGCAAUAUUACGGUCG | -0.147 ± 0.079 | -0.266 ± 0.1
AUUCAGCAAUAUUACGGCUU | 0.744 ± 0.12 | -0.128 ± 0.13
GUCAAGCAAUAUUACGUUGC | -5.11 ± 0.34 | -2.28 ± 0.21
UUUGAGCAAUAUUACGUUGC | -2.68 ± 0.34 | -2.29 ± 0.36
ACCCAGCAAUAUUACGACCU | -0.748 ± 0.062 | -0.326 ± 0.074
AAAGAGCAAUAUUACGUACG | -3.6 ± 0.44 | -1.9 ± 0.41
AAGCAGCAAUAUUACGCGUC | -3.03 ± 0.16 | -1.7 ± 0.15
AGUGAGCAAUAUUACGUUCU | -1.78 ± 0.15 | -1.57 ± 0.14
GUGGAGCAAUAUUACGCAUA |  | -1.1 ± 0.4
CUGCAGCAAUAUUACGAAAA |  | -2.19 ± 0.31
CUCGAGCAAUAUUACGACAA | -2.69 ± 0.19 | -2.65 ± 0.19
UAAAAGCAAUAUUACGUGCA | -0.586 ± 0.067 | -0.196 ± 0.079
AAUCAGCAAUAUUACGAUGG | -1.49 ± 0.1 | -0.853 ± 0.12
UCAUAGCAAUAUUACGAUAC | -3.23 ± 0.38 | 
UCUUAGCAAUAUUACGAGAC | -2.23 ± 0.25 | 
AUACAGCAAUAUUACGGAUC | -3.54 ± 0.23 | -2.53 ± 0.23
UCCUAGCAAUAUUACGUCGU | -2.3 ± 0.13 | -0.732 ± 0.13
AUACAGCAAUAUUACGCUGG | -2.29 ± 0.13 | -2.76 ± 0.25
AGAGAGCAAUAUUACGUGGC | -3.07 ± 0.25 | -1.59 ± 0.35
AUCGAGCAAUAUUACGAUGG |  | -2.17 ± 0.38
AUAAAGCAAUAUUACGUACC | 0.0438 ± 0.19 | -0.16 ± 0.4
CUCCAGCAAUAUUACGUCUA | -4.32 ± 0.24 | -3.05 ± 0.18

Sequence | self-splicing fitness (ln) (30 °C) | self-splicing fitness (ln) (37 °C)
CAAUAGCAAUAUUACGACUU | -3.35 ± 0.24 | -0.264 ± 0.23
CUAUAGCAAUAUUACGACGU | -3.85 ± 0.37 | -1.96 ± 0.3
UCUUAGCAAUAUUACGAGUA | -0.787 ± 0.26 | -1.19 ± 0.27
AAACAGCAAUAUUACGGGGA | -2.79 ± 0.1 | -1.63 ± 0.081
GUUUAGCAAUAUUACGGCAA | -0.678 ± 0.14 | -1.03 ± 0.13
AGUCAGCAAUAUUACGCUUG | -2.79 ± 0.15 | -0.514 ± 0.15
AGCUAGCAAUAUUACGGCAC | -1.75 ± 0.14 | -0.45 ± 0.16
GUCGAGCAAUAUUACGGCAG |  | -2.81 ± 0.44
AACAAGCAAUAUUACGUUUC | -4.46 ± 0.22 | -2.95 ± 0.15
CCGGAGCAAUAUUACGGUGU | -3.21 ± 0.16 | -2.13 ± 0.19
AAAAAGCAAUAUUACGUCCC | -0.842 ± 0.15 | 0.362 ± 0.23
CUGAAGCAAUAUUACGUACG | 0.694 ± 0.073 | 0.514 ± 0.09
UUAGAGCAAUAUUACGACUA | -1.13 ± 0.31 | -0.676 ± 0.32
UGCAAGCAAUAUUACGAUUU | -1.16 ± 0.09 | -1.05 ± 0.1
CGCCAGCAAUAUUACGUCGU | -3.29 ± 0.15 | -2.35 ± 0.16
AGUUAGCAAUAUUACGGUUA | -1.54 ± 0.12 | -0.607 ± 0.087
UCUAAGCAAUAUUACGAUGA | -0.162 ± 0.058 | 0.0109 ± 0.072
AGUGAGCAAUAUUACGAGGU | -3.63 ± 0.31 | 
CCUUAGCAAUAUUACGUCUG | -2.99 ± 0.1 | -1.48 ± 0.096
AUGAAGCAAUAUUACGAGAU | -2.93 ± 0.21 | -1.28 ± 0.21
CAAAAGCAAUAUUACGAGUA | -3.32 ± 0.14 | -1.89 ± 0.11
UAGUAGCAAUAUUACGAAAG |  | -1.97 ± 0.26
AAAUAGCAAUAUUACGAGUU | -1.22 ± 0.11 | -0.896 ± 0.11
UCGUAGCAAUAUUACGGUUA | -1.39 ± 0.15 | -0.71 ± 0.12
CCCAAGCAAUAUUACGGGUC | -3.19 ± 0.13 | -3.14 ± 0.19
